Target: T1, 6×His::UNC-84(912–1,111) (C. elegans, UniProt Q20745 912-1111)
T1 sequence (looked up): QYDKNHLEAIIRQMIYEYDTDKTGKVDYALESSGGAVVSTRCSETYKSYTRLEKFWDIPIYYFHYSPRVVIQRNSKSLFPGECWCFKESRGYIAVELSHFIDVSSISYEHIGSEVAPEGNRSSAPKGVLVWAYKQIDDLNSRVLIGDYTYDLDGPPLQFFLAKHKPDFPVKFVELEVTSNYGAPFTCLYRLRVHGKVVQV
Assay: SEC

**Q.** Does ASILVLGFLVFIAWMFININSALNAPPNA (domain or fragment, C. elegans, UniProt Q23529 749-777, looked up) [MBP::ZYG-12(749–777)] bind?
**A.** Result: binds

From article PMC5166498 (The Journal of Cell Biology, 2016)
